The DeepSol protein solubility set

Experiment: soluble on expression in E. coli; label from the status in PepcDB or PDB records

Row | Sequence | soluble on expression in E. coli
1 | MFFIKDLSLNITLHPSFFGPRMKQYLKTKLLEEVEGSCTGKFGYILCVLDYDNIDIQRGRILPTDGSAEFNVKYRAVVFKPFKGEVVDGTVVSCSQHGFEVQVGPMKVFVTKHLMPQDLTFNAGSNPPSYQSSEDVITIKSRIRVKIEGCISQVSSIHAIGSIKEDYLGAI | soluble
2 | MFFMYFTNYGYRLNQIKKGSDQHWLFLPGGPGLGSEYLASFCDKLTLQGTVSLVDFPKDGNNSEGQLDFVSWQEGLISLLKSLNKPILVTHSFSGMFTLNFPEIENHLSGLVLMNTTTTNSFFQHVNEMRQKHNLPDLVPAASQYHLYPSNETYKKFWDTYKHYCFTQEELPIGEQMMELFAYNNESYHYAIEHFYNDFHYKWHPQTIPTMTIASELDYICPPAIFIQDKNFQCQNVINKVIYKAGHCPWILHLEQVQKCFDEFSGMIQEINIERIL | not soluble
3 | MFGGGSSGPVDTTLYTTLNVRPDASQADIKKSYFKLAKEYHPDKNPDHGDKFKEISFAYEVLSSPEKRRLYDARGLEGVQGGGAGGGGGGFPGGLFSHFFGGAGGDDDDDDDDMGGHPFGGLFGGMGGMGRGGPRRRKFQDTVHPLNVTLEELYVGKTSKLKLSKKALCKTCEGSGGKKGEKYKCDACRGRGVKTIVQQIGPGMLQQMQVHCDACKGSGGKVPAGDKCKGCHGEKYENVSKILEVHVLPGMKHNDKITFKGDGDQSDPDGEPGDVVIVIQQKDHDIFKRDGDDLHMTKKLSLNEALCGYNFLIKHLDGHPLVLSSKQGDVIKPGVIRGVLGKGMPNKKYPELKGNLFVEFEVEFPKEHFLDDEKAYAVLKSCFPTSKVVNVTPAAAEVSLMEYDEKKYSRGRGGDAYNEDSDEEQHGGHHGQGVRCQHQ | not soluble
4 | MFIEVEKFVEARTNSIAQLLKAIDNDALVSGEVTKGPRTAAQRLPRHMRRRAMAYDIRRFPRTMREFAAAHLISKHAKKCPSRFARRKSANSRTKFGRSTSTKGIWLSTHVWHAKRFRMIQKWGFKLADRSFQRGFRAVLRDSNKNCVIRDRSYYTCVTIQCTDAYSKISQFSQKGCRGQSSRDEEEECHQLYMPGKYPFGYIGPARFQRLSGDKVHIWIHPSSKLQFMKALLEYYNLEKQENTEEDLYKNSEIKVSIDAENICRFHLSGPKCLSKLRDSIRFVNDEKFSSEHNYFLSVSDSVFQSSRDGEVINLLIEDPRTTWDRKTVLKHKKVNKEADNERIRVSKFWNKEFREMAIEKRMADSEFHKQNSSKINGVISTEAKVPIILIIRNEGLKALDGADILIPEPFAKDFWVSLQRRGVRASGLRDEYAAHLESKALYYPLDDVGSEAGRESELAMKKELIEKYLGKPHNRRCKHWSAVSVKYPFEFKWDELSQDWNLSNKPRSEAFVCRDLQKLRIIEEAMKKGSGLEEFQEPGMLIPVKLQFFGRGRPKKYGMVCLPTDDDLISIRKNRNREIIQTPPEASSQDSDIVEAMEIEEITVKKNQGFMSLEAAASEKPINLKLLFEETTKLDDKTTKRKRVNRKKRESKKRRKIEQEKRKEEAEVEEVQKLATKYRFSANREIIGRLVAGEQSVLAGHGVGIGYICANTLSLIASNYHKSKTVVMVRNSTSKYYHPAYVTILKNATKI | not soluble
5 | MFITFEGIDGSGKSTQIQLLAQYLEKRGKKVILKREPGGTETGEKIRKILLEEEVTPKAELFLFLASRNLLVTEIKQYLSEGYAVLLDRYTDSSVAYQGFGRNLGKEIVEELNDFATDGLIPDLTFYIDVDVETALKRKGELNRFEKREFLERVREGYLVLAREHPERIVVLDGKRSIEEIHRDVVREVKRRWKLDV | soluble
6 | MFKDKKILVIGGTGSIGQALIERILTENPAVIRVYSRDEYKQFLLAEKFRENANIRYLIGDVRDEDRLDRAMNDIDIVFNLAALKHVPACEYNPFEAVRTNVIGSQNVIACAMANKVKKVIYTSSDKAVSPTNTMGATKLLAERLMSSSNYSRGNTGTVFASVRFGNVMGTRGSVIPLFKQQVLEKGYITVTEPEMTRFMMSLSQAVELTIKACSIARGGEVFVLKMPVIRLKDLAEVIIEDMCKKNNIDPEKIEIKKIGLRPGEKMYEELMSEDESTKAVELNDMYVIMPPFENSYYINARKAVIGNYSSQKEKTLTKSQIRELLVREKLI | not soluble
7 | MFKIKTIESLSDLTQLKKAYFDSSIVPLDGMWHFGFAPMAKHFGFYVNKNLVGFCCVNDDGYLLQYYLQPEFQLCSQELFTLISQQNSSVIGEVKGAFVSTAELNYQALCLDNSATFKVNSLMYQHNTKLADRNLEMIDMQIAGTEQLTAFVTFAAANIGAPEQWLTQYYGNLIERKELFGYWHKGKLLAAGECRLFDQYQTEYADLGMIVAQSNRGQGIAKKVLTFLTKHAATQGLTSICSTESNNVAAQKAIAHAGFTSAHRIVQFEFKHA | soluble
8 | MFKKLFGKGKEVQKDIAIYAPLTGEFVKIEDIPDPVFAQKMMGEGFGINPTEGEVVSPIAGRVDNVFPTKHAIGLKADNGLELLVHIGLDTVQLDGEGFEVLVSSGDEVNVGDPLVRFNLEYINNNAKSVISPIIITNTDQAASINIYDENAVIKGETKVIDVTMN | not soluble
9 | MFKRLSRFLLPLVWIFTATTALADDTQINTMDPYSMVKSVANKTFDRFHKDKALIDADADHLKVIVREELMPYIDYKYASYKVLGQYLKESTEDQRNRFVDAFQGYLVTTYAQAFTEYTNQKVEFSPGSDFSNEKIVDVNVQIIEAGRPPIKLLFKARRLKDDSWKAFDLVAEGVSLLSSKQSEISNLIRQQGIEPVIKMLEERTKDKVTKQPKAGKLEHHHHHH | soluble
10 | MFKVDRYFDLTAPIYPYMPVWPSNPPVELKPIVTVPKDGYLAEIIEASTHTGTHIDAPAHMIEGGTTVDDLDLASLIGTGYCLKVLPDGHTIRSTHLAEKWQGIYNNSILLIETGWYKKRGYTREFQYDFPGLSEDAADFLIQKHVKAVGIDTLGIEPYENTDFRVHKKLLRSGIPIIEDLYGLDSLEEGRPYLIIALPLRLKGTSGSMARVVAAETELEHHHHHH | not soluble
11 | MFNGDDDFPMGAMHSFGQMHQQMMSDMNMMTGGMLRNMGMGGPMFGGLMVPSPFGAITDGSGQQPSRRRQELEMNPFAPFGGLLGGLGGMGMMMPPPGQGANMYMSSSVMTIGPDGKPRVEQQTVRRHGDVTETKRRVDKNGESSMSIGHSIGDRSHFIDKKRDREGNVRKQQRFQNLDEASAEAFDREFSSRVRQGYGSGSRSSNLREIDNGLSSSRRSPFGGAGASSSSRRMESRGASRGAPIVTLPEEEETAHSRSSTSHRVGGPLIREISEEEAEQAASSIPKRRRGQQ | not soluble
12 | MFNLQKRINGNNEDGRYLETRIAVRDKLLAQELQQLETALRDQKQKLWHLEVPSTSCLHELELTVTPQEGIYRGGKFRFKITVPPEYNNVPPVVKCLTKVWHPNINEDGSICLSILRQNSLDQYGWRPTRNLTDVVHGLVSLFNDLMDFNDALNIQAAQMWSQNRESFNHRVREYISRYC | soluble
13 | MFNNILVVCVGNICRSPTAERLLQRYHPELKVESAGLGALVGKGADPTAISVAAEHQLSLEGHCARQISRRLCRNYDLILTMEKRHIERLCEMAPEMRGKVMLFGHWDNECEIPDPYRKSRETFAAVYTLLERSARQWAQALNAEQV | not soluble
14 | MFQIGEALMGQGSELAHVDLMIGDKGGPVGQAFANGLTQLSAGHTPLLSVIRPNLPPKPSTLIIPKVTVKNMDQAARIFGPAQSAVAKAVADSVEEGVIPKDQVEDLVIVASVFIHPEAQDYNKIYRYNYGATKLAIKRALEGFPDIDTVLEESNKSTHAIMGFKVTRLWDPPYLQIAFDNPNLEFVLSAISEIPKSDHVIIEAGTPLIKRYGTDVISKIRQVRPDAFIVADLKTLDTGNLEARMVADAAGDAIVVSALAPISTIDKLIEEAHKTGIYAVMDTLNQQDPISVLKQLKVMPDVIELHRGIDIEGTEHAWGNIGEIKKIAPKALVAVAGGVRLDKVPVALSQGADILVVGRAITNAKDVREMAEQFINSLNKPEIDQFRVMTDF | not soluble
15 | MFQNHKIMDLEVRTRLDDNRNLREVRIIPLGSGYNVGIVYSKEISDISDLNPKRILGIDMGVRNIVTIGNNMSEEGIAVKGGVLRSINQYFNKELSKLKSVSDRQNDGKGNTRRIKNLYAVRNGKIKDIMHKLSRAIIRYALSMNVDTIVIGHSQGWKHTPDMGKKNNQNFVQIPFNILIEQIRYKGQEAGINVIVLDESYTSVCSFIDNESIEKHETYMGKRIKRGIFRSHKGILIHADLNALYNTIKKAISEAFADGIEGIGLYPRSLSIREMITSKGLRLEHHHHHH | soluble
16 | MFRIGQGFDVHQLVEGRPLIIGGIEIPYEKGLLGHSDADVLLHTVADACLGAVGEGDIGKHFPDTDPEFKDADSFKLLQHVWGIVKQKGYVLGNIDCTIIAQKPKMLPYIEDMRKRIAEGLEADVSQVNVKATTTEKLGFTGRAEGIAAQATVLIQKG | not soluble
17 | MFRISQLLKTLHDDMAELKPVKASRKMKGPVVIWNLIRRCNLQCKHCYSTSLDIDFKDELSTEQVKTTIDDLKVAHVPVLILSGGEPLLRPDIYEITEYAKQKGFYLALSTNGTLINEDNIEAIKAAEYQYVGISIDGLEEFHDEFRRQKGSFKTSMHAIKLCKDAGIKVGMRLCLTRENFKDLPAMLNLMEENSVDKFYLSHLNYSGRGKRTAENDAMFKMTKDAMELLYERAWTHINQGIETDFVTGNNDADGPFLLQWASKQFAEEYPEAIANLKQRLINWGGNSSGINVANIDNTGTIHPDTYWWNHPIGNVTTEKFSDVWRDTQDPLMLGFRQTPRPVKGRCASCEHLAICGGNTRTRAFAQSGDAWAEDPGCYLDDDEIGFIPSPSKFADELTNTENPIQFVEV | not soluble
18 | MFRLLVPTYYSYSVPLRFPFCKIYRYSTSNKMVAIKDITARQILDSRGNPTVEVDLLTDGGCFRAAVPSGASTGIYEALELRDKDQTKFMGKGVMKAVENIHKIIKPALIGKDPCDQKGIDKLMVEELDGTKNEWGWCKSKLGANAILAVSMACCRAGAAAKGMPLYKYIATLAGNPTDKMVMPVPFFNVINGGSHAGNKVAMQEFMIAPVGASTIQEAIQIGAEVYQHLKVVIKKKYGLDATNVGDEGGFAPNISGATEALDLLMEAIKVSGHEGKVKIAADVAASEFFLQDDKVYDLDFKTPNNDKSQRKTGEELRNLYKDLCQKYPFVSIEDPFDQDDFHSYAQLTNEVGEKVQIVGDDLLVTNPTRIEKAVQEKACNGLLLKVNQIGTVSESIEACQLAQKNKWGVMVSHRSGETEDSFIADLVVGLRTGQIKTGAPCRSERLCKYNQLMRIEESLGSDCQYAGAGFRHPN | soluble
19 | MFRNVAELVALAEKDSIKIAEVMIRQEVEVSGRSREEVIAQMDHHLSVMERAVERGLEGVVSRSGLTGGDAVRMQRYIEGGRFLSGETILDAVSKAMATNEVNAAMGVICATPTAGAAGVVPGTLFAVKEKLRPTRMEMIEFLFTAGAFGYVVANNASISGAAGGCQAEVGSAAGMAAAALVELAGGTPGQAAEAMAIALKNMLGLVCDPVAGLVEVPCVKRNAMGAANAMIAADMALAGIKSRIPCDEVIEAMYRIGAAMPVALKETAQGGLAATPTGRAIAARIFGASAASK | not soluble
20 | MFSAKKLSPADKLKNISSMLEEIVEDTTVPRNIRAAADNAKNALHNEEQELIVRSATAIQYLDDISEDPNMPIHTRTQIWGIVSELETIKN | not soluble
21 | MFSPLRRLTTTGLQLQKLQKLQKLQQFQPARAVHLTVFQQKGHSKWQNIKAVKGKNDLIRSKATNFLLRKVRGAVSRGGFDMKLNRELADLESEFRAQGLPLDTLKNFLQKMKDKPEVEYSFDIIGPSGIFLIVTAETSNKKAFENDLRKYFNKLGGFRLAADGGVRSWFEEKGVVHVDTKKGGKILNIEEMEEIGLEFDAEEVLLIEEDSTKKFELICDAKSLQTLENGLGKGGFSILQSEIEFRPVHPIDCPEAEEPKVQKLYEMLQEDEQVRQIFDNITPDE | not soluble
